According to patent US20220048967A1 (published 2022):
Numbered stars: 1 amine (or outer) side, 2 acyl side, 3 side chain; on linkers, the order of the positions; unused ones are H or OH. Square brackets hold non-standard residues; d marks the D form. Side chains are listed from the residue outwards. Ends that are not written are not given here. * marks the point of attachment. C20 diacid = O=C(O)CCCCCCCCCCCCCCCCCCC(=O)*; C18 diacid = O=C(O)CCCCCCCCCCCCCCCCC(=O)*; αMePhe(2-F) = C[C@](N)(Cc1ccccc1F)C(=O)O; γGlu = O=C(O)[C@H](CCC(=O)[*:2])N[*:1]; Desaminohistidyl = O=C(CCc1c[nH]cn1)*; Desaminotyrosyl = O=C(CCc1ccc(O)cc1)*; αMeP = C[C@@]1(C(=O)O)CCCN1; AEEA = NCCOCCOCC(=O)O; Aib = CC(C)(N)C(=O)O

T1: human gastric inhibitory peptide receptor (GIPR) (human, UniProt P48546 22-466)
T1 sequence (looked up): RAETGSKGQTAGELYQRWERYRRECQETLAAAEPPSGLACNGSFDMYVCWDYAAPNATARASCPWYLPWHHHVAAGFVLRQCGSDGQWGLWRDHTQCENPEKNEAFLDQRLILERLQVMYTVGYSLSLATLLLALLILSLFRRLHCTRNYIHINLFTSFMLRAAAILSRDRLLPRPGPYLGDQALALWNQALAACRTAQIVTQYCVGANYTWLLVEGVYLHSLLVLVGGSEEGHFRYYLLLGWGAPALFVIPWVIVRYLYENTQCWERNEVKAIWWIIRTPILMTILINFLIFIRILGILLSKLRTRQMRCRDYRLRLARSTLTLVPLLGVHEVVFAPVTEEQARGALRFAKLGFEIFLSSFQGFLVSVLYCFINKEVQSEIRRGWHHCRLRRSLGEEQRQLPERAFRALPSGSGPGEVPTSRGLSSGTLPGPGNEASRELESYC


Tests used:
[1] = biological target: T1, human gastric inhibitory peptide …; assay: cell-based or functional assay
[2] = biological target: human GLP-1 receptor (GLP-1R) (human, UniProt P43220 24-463); assay: cell-based or functional assay

Binder | hGIPR cAMP EC50 ratio [1] | hGIPR cAMP Rel EC50 [1] [nM] | hGLP1R cAMP EC50 ratio [2] | hGLP1R cAMP Rel EC50 [2] [nM]
Y[αMeP]EGTFTSDYSILLDEK([AEEA-AEEA-γGlu-C20 diacid])AQHAFIEYLIEGGPSSGAPPPS-NH2 (N-terminus assumed; SMILES CC[C@H](C)[C@H](NC(=O)[C@H](CC(C)C)NC(=O)[C@H](Cc1ccc(O)cc1)NC(=O)[C@H](CCC(=O)O)NC(=O)[C@@H](NC(=O)[C@H](Cc1ccccc1)NC(=O)[C@H](C)NC(=O)[C@H](Cc1c[nH]cn1)NC(=O)[C@H](CCC(N)=O)NC(=O)[C@H](C)NC(=O)[C@H](CCCCNC(=O)COCCOCCNC(=O)COCCOCCNC(=O)CC[C@H](NC(=O)CCCCCCCCCCCCCCCCCCC(=O)O)C(=O)O)NC(=O)[C@H](CCC(=O)O)NC(=O)[C@H](CC(=O)O)NC(=O)[C@H](CC(C)C)NC(=O)[C@H](CC(C)C)NC(=O)[C@@H](NC(=O)[C@H](CO)NC(=O)[C@H](Cc1ccc(O)cc1)NC(=O)[C@H](CC(=O)O)NC(=O)[C@H](CO)NC(=O)[C@@H](NC(=O)[C@H](Cc1ccccc1)NC(=O)[C@@H](NC(=O)CNC(=O)[C@H](CCC(=O)O)NC(=O)[C@]1(C)CCCN1C(=O)[C@@H](N)Cc1ccc(O)cc1)[C@@H](C)O)[C@@H](C)O)[C@@H](C)CC)[C@@H](C)CC)C(=O)N[C@@H](CCC(=O)O)C(=O)NCC(=O)NCC(=O)N1CCC[C@H]1C(=O)N[C@@H](CO)C(=O)N[C@@H](CO)C(=O)NCC(=O)N[C@@H](C)C(=O)N1CCC[C@H]1C(=O)N1CCC[C@H]1C(=O)N1CCC[C@H]1C(=O)N[C@@H](CO)C(N)=O) [Example 194] | 0.427 | 0.423 | 0.205 | 0.284
[Desaminotyrosyl]AEGTFTSDYSILLDEK([AEEA-AEEA-γGlu-C20 diacid])AQQAFIEYLIEGGPSSGAPPPS-NH2 [Example 200] | 0.0146 | 12.3 | 0.573 | 0.0818
Y[αMeP]EGTFTSDYSILLDRK([AEEA-AEEA-γGlu-C20 diacid])AQQAFIEYLIEGGPSSGAPPPS-NH2 (N-terminus assumed; SMILES CC[C@H](C)[C@H](NC(=O)[C@H](CC(C)C)NC(=O)[C@H](Cc1ccc(O)cc1)NC(=O)[C@H](CCC(=O)O)NC(=O)[C@@H](NC(=O)[C@H](Cc1ccccc1)NC(=O)[C@H](C)NC(=O)[C@H](CCC(N)=O)NC(=O)[C@H](CCC(N)=O)NC(=O)[C@H](C)NC(=O)[C@H](CCCCNC(=O)COCCOCCNC(=O)COCCOCCNC(=O)CC[C@H](NC(=O)CCCCCCCCCCCCCCCCCCC(=O)O)C(=O)O)NC(=O)[C@H](CCCNC(=N)N)NC(=O)[C@H](CC(=O)O)NC(=O)[C@H](CC(C)C)NC(=O)[C@H](CC(C)C)NC(=O)[C@@H](NC(=O)[C@H](CO)NC(=O)[C@H](Cc1ccc(O)cc1)NC(=O)[C@H](CC(=O)O)NC(=O)[C@H](CO)NC(=O)[C@@H](NC(=O)[C@H](Cc1ccccc1)NC(=O)[C@@H](NC(=O)CNC(=O)[C@H](CCC(=O)O)NC(=O)[C@]1(C)CCCN1C(=O)[C@@H](N)Cc1ccc(O)cc1)[C@@H](C)O)[C@@H](C)O)[C@@H](C)CC)[C@@H](C)CC)C(=O)N[C@@H](CCC(=O)O)C(=O)NCC(=O)NCC(=O)N1CCC[C@H]1C(=O)N[C@@H](CO)C(=O)N[C@@H](CO)C(=O)NCC(=O)N[C@@H](C)C(=O)N1CCC[C@H]1C(=O)N1CCC[C@H]1C(=O)N1CCC[C@H]1C(=O)N[C@@H](CO)C(N)=O) [Example 195] | 0.936 | 0.193 | 0.602 | 0.0966
[dY][αMeP]EGTFTSDYSILLDEK([AEEA-AEEA-γGlu-C18 diacid])AQQAFIEYLIEGGPSSG-NH2 (N-terminus assumed; SMILES CC[C@H](C)[C@H](NC(=O)[C@H](CC(C)C)NC(=O)[C@H](Cc1ccc(O)cc1)NC(=O)[C@H](CCC(=O)O)NC(=O)[C@@H](NC(=O)[C@H](Cc1ccccc1)NC(=O)[C@H](C)NC(=O)[C@H](CCC(N)=O)NC(=O)[C@H](CCC(N)=O)NC(=O)[C@H](C)NC(=O)[C@H](CCCCNC(=O)COCCOCCNC(=O)COCCOCCNC(=O)CC[C@H](NC(=O)CCCCCCCCCCCCCCCCC(=O)O)C(=O)O)NC(=O)[C@H](CCC(=O)O)NC(=O)[C@H](CC(=O)O)NC(=O)[C@H](CC(C)C)NC(=O)[C@H](CC(C)C)NC(=O)[C@@H](NC(=O)[C@H](CO)NC(=O)[C@H](Cc1ccc(O)cc1)NC(=O)[C@H](CC(=O)O)NC(=O)[C@H](CO)NC(=O)[C@@H](NC(=O)[C@H](Cc1ccccc1)NC(=O)[C@@H](NC(=O)CNC(=O)[C@H](CCC(=O)O)NC(=O)[C@]1(C)CCCN1C(=O)[C@H](N)Cc1ccc(O)cc1)[C@@H](C)O)[C@@H](C)O)[C@@H](C)CC)[C@@H](C)CC)C(=O)N[C@@H](CCC(=O)O)C(=O)NCC(=O)NCC(=O)N1CCC[C@H]1C(=O)N[C@@H](CO)C(=O)N[C@@H](CO)C(=O)NCC(N)=O) [Example 198] | < 0.00602 | > 30 | 0.337 | 0.139
[Desaminotyrosyl][Aib]EGTFTSDYSILLDEK([AEEA-AEEA-γGlu-C20 diacid])AQQAFIEYLIEGGPSSGAPPPS-NH2 [Example 199] | < 0.00602 | > 30 | 1.11 | 0.0422
Y[αMeP]EGTFTSDYSILLDRK([AEEA-AEEA-γGlu-C20 diacid])AQHAFIEYLIEGGPSSGAPPPS-NH2 (N-terminus assumed; SMILES CC[C@H](C)[C@H](NC(=O)[C@H](CC(C)C)NC(=O)[C@H](Cc1ccc(O)cc1)NC(=O)[C@H](CCC(=O)O)NC(=O)[C@@H](NC(=O)[C@H](Cc1ccccc1)NC(=O)[C@H](C)NC(=O)[C@H](Cc1c[nH]cn1)NC(=O)[C@H](CCC(N)=O)NC(=O)[C@H](C)NC(=O)[C@H](CCCCNC(=O)COCCOCCNC(=O)COCCOCCNC(=O)CC[C@H](NC(=O)CCCCCCCCCCCCCCCCCCC(=O)O)C(=O)O)NC(=O)[C@H](CCCNC(=N)N)NC(=O)[C@H](CC(=O)O)NC(=O)[C@H](CC(C)C)NC(=O)[C@H](CC(C)C)NC(=O)[C@@H](NC(=O)[C@H](CO)NC(=O)[C@H](Cc1ccc(O)cc1)NC(=O)[C@H](CC(=O)O)NC(=O)[C@H](CO)NC(=O)[C@@H](NC(=O)[C@H](Cc1ccccc1)NC(=O)[C@@H](NC(=O)CNC(=O)[C@H](CCC(=O)O)NC(=O)[C@]1(C)CCCN1C(=O)[C@@H](N)Cc1ccc(O)cc1)[C@@H](C)O)[C@@H](C)O)[C@@H](C)CC)[C@@H](C)CC)C(=O)N[C@@H](CCC(=O)O)C(=O)NCC(=O)NCC(=O)N1CCC[C@H]1C(=O)N[C@@H](CO)C(=O)N[C@@H](CO)C(=O)NCC(=O)N[C@@H](C)C(=O)N1CCC[C@H]1C(=O)N1CCC[C@H]1C(=O)N1CCC[C@H]1C(=O)N[C@@H](CO)C(N)=O) [Example 196] | 0.653 | 0.277 | 0.332 | 0.175
Y[Aib]EGT[αMePhe(2-F)]TSDYSIXLDEK([AEEA-AEEA-γGlu-C18 diacid])AQ[Aib]EFI[dE]YLIEGGPSSG-NH2 (not fully specified (residue 13); printed as Y-Aib-EGT-αMeF(2F)-TSDYSI-αMeF-LDEK((2-[2-(2-Amino-ethoxy)-ethoxy]-acetyl)2-(γ-Glu)-CO-(CH2)16-CO2H)AQ-Aib-EFI-(D-Glu)-YLIEGGPSSG-NH2) [Example 219] | 5.86 | 0.0341 | 1.03 | 0.0403
Y[αMeP]EGTFTSDYSILLDEK([AEEA-AEEA-γGlu-C18 diacid])AQQAFIEYLIEGGPSSG-NH2 (N-terminus assumed; SMILES CC[C@H](C)[C@H](NC(=O)[C@H](CC(C)C)NC(=O)[C@H](Cc1ccc(O)cc1)NC(=O)[C@H](CCC(=O)O)NC(=O)[C@@H](NC(=O)[C@H](Cc1ccccc1)NC(=O)[C@H](C)NC(=O)[C@H](CCC(N)=O)NC(=O)[C@H](CCC(N)=O)NC(=O)[C@H](C)NC(=O)[C@H](CCCCNC(=O)COCCOCCNC(=O)COCCOCCNC(=O)CC[C@H](NC(=O)CCCCCCCCCCCCCCCCC(=O)O)C(=O)O)NC(=O)[C@H](CCC(=O)O)NC(=O)[C@H](CC(=O)O)NC(=O)[C@H](CC(C)C)NC(=O)[C@H](CC(C)C)NC(=O)[C@@H](NC(=O)[C@H](CO)NC(=O)[C@H](Cc1ccc(O)cc1)NC(=O)[C@H](CC(=O)O)NC(=O)[C@H](CO)NC(=O)[C@@H](NC(=O)[C@H](Cc1ccccc1)NC(=O)[C@@H](NC(=O)CNC(=O)[C@H](CCC(=O)O)NC(=O)[C@]1(C)CCCN1C(=O)[C@@H](N)Cc1ccc(O)cc1)[C@@H](C)O)[C@@H](C)O)[C@@H](C)CC)[C@@H](C)CC)C(=O)N[C@@H](CCC(=O)O)C(=O)NCC(=O)NCC(=O)N1CCC[C@H]1C(=O)N[C@@H](CO)C(=O)N[C@@H](CO)C(=O)NCC(N)=O) [Example 197] | 0.855 | 0.211 | 0.189 | 0.248
[Desaminohistidyl][αMeP]EGTFTSDYSILLDEK([AEEA-AEEA-γGlu-C20 diacid])AQQAFIEYLIEGGPSSGAPPPS-NH2 [Example 201] | < 0.00602 | > 30 | 1.22 | 0.0385
